The target in assay [1] is T1, MfANGPTL3(17-170)-mmH (Macaca fascicularis).
T1 chain: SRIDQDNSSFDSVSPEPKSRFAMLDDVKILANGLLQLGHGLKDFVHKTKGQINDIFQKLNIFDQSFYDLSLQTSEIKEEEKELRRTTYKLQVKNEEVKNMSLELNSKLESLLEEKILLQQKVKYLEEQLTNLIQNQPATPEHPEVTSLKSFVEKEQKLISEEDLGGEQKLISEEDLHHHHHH
Nature of the assay: cell-based or functional assay.

For assay [2], the target named is T2, hANGPTL3(17-169)-mFc (human).
T2 chain: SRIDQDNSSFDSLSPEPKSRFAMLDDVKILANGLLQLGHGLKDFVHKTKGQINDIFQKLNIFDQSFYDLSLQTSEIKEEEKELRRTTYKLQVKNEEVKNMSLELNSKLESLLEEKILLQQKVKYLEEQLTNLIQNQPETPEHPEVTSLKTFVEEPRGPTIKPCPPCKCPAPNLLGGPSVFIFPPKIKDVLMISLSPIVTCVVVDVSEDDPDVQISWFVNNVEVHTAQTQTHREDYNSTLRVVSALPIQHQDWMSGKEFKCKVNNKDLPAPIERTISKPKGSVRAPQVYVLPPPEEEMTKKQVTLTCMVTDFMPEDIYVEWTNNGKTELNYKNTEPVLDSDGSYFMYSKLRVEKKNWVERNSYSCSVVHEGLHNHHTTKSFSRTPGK
The experiment in a line: cell-based or functional assay.

The target in assay [3] is T3, mANGPTL3(17-240)-His (Mus musculus, UniProt Q9R182 17-240).
T3 sequence: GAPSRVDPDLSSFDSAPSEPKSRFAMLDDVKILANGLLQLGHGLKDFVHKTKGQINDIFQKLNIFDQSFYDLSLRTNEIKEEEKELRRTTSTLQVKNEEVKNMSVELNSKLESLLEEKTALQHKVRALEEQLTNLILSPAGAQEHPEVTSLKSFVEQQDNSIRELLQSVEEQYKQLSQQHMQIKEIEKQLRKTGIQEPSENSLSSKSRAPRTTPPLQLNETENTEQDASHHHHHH
Nature of the assay: cell-based or functional assay.

For assay [4], the target named is T2, hANGPTL3(17-169)-mFc. Nature of the assay: SPR Biacore, antigen captured, 25C, pH 7.4, HBS-EP. On the procedure: (§1) All kinetic binding experiments were performed at 25° C. or 37° C. on a BIACORE™ T200 label-free molecular interaction instrument (GE Healthcare) using a CM5 sensor chip. Briefly, an antigen capture surface was generated by covalently coupling either an anti-mouse IgG-specific antibody (anti-mFc; GE Healthcare; catalog #BR-1008-38) or an anti-pentahistidine-specific antibody (Qiagen; catalog #34660) to the surface of a CM5 sensor chip using a standard amine coupling method.
(In general: SPR reads the build-up and loss of mass on a sensor chip optically.)

For another assay, the target named is T4, hANGPTL3(17-460)-His (human, UniProt Q9Y5C1 17-460).
T4 construct: Bought protein (R&D Systems); also called full-length mature human ANGPTL3 with a C-terminal decahistidine tag; Human ANGPTL3 (17-460)-His
T4 sequence: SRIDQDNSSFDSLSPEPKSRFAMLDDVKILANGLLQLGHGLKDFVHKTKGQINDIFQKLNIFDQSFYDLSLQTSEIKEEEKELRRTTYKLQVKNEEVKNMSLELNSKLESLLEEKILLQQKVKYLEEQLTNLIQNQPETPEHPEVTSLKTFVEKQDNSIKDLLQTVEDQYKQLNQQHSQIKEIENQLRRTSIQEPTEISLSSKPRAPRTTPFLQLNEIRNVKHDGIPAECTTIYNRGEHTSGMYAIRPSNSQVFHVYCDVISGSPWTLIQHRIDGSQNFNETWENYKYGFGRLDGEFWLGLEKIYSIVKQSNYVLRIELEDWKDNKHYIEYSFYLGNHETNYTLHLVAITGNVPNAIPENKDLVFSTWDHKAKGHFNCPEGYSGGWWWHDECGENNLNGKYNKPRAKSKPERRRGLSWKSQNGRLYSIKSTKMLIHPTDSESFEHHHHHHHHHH
The experiment in a line: SPR Biacore, antigen captured, 25C, pH 7.4, HBS-EP. The protocol:
as §1

Assay [5] has as its target T2, hANGPTL3(17-169)-mFc. The experiment in a line: cell-based or functional assay.
Assay [6] has as its target T3, mANGPTL3(17-240)-His. Nature of the assay: cell-based or functional assay. This is another data set of the same source.
The target in assay [7] is T1, MfANGPTL3(17-170)-mmH. Nature of the assay: SPR Biacore, antigen captured, 37C, pH 7.4, HBS-EP.
The next assay has as its target T5, mANGPTL3(17-455)-His (Mus musculus, UniProt Q9R182 17-455).
T5 construct: Bought protein (R&D Systems); also called full-length mature ANGPTL3 from Mus musculus with a C-terminal decahistidine tag
T5 sequence: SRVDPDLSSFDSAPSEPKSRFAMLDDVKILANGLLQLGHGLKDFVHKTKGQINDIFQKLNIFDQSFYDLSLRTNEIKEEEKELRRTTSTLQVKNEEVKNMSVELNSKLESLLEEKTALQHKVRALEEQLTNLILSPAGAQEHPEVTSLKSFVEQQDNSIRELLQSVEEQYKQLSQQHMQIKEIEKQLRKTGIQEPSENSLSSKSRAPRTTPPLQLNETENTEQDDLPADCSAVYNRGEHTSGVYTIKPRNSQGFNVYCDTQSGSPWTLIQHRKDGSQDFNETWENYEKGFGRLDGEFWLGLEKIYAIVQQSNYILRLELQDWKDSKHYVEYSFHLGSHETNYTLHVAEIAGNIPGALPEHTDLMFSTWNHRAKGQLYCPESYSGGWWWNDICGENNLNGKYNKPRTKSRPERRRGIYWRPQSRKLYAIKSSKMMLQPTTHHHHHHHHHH
Nature of the assay: SPR Biacore, antigen captured, 37C, pH 7.4, HBS-EP.

The text below walks through data of patent US20150197564A1 (Regeneron, published 2015).

B1: H4H1276S (antibody, IgG4, V domains shown)
VH: EVQLVESGGGVIQPGGSLRLSCAASGFTFDDYAMNWVRQGPGKGLEWVSAISGDGGSTYYADSVKGRFTISRDNSKNSLYLQMNSLRAEDTAFFYCAKDLRNTIFGVVIPDAFDIWGQGTMVTVSS
VL: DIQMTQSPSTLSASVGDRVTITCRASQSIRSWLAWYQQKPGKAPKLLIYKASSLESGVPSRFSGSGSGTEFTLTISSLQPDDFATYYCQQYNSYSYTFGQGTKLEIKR
With B1, the “IC50 (nM), LPL bioassay, 500 nM constant ANGPTL3” value with MfANGPTL3(17-170)-mmH [1] is 10 nM; in the assay with mANGPTL3(17-240)-His [3], 31 nM. The “IC50 (nM), LPL bioassay, 80 nM constant ANGPTL3” value with hANGPTL3(17-169)-mFc [2] is 21 nM. For the same molecule, the Kd – broadly, the equilibrium constant for the complex coming apart – with hANGPTL3(17-169)-mFc [4] is 0.659 nM; with hANGPTL3(17-460)-His, 1.35 nM; in the assay with MfANGPTL3(17-170)-mmH [7], 0.625 nM; with mANGPTL3(17-455)-His, 0.408 nM. For the same molecule, the koff (in general, a measure of how fast the partners let go of each other) in the assay with hANGPTL3(17-169)-mFc [4] worked out at 0.000383 s⁻¹; with hANGPTL3(17-460)-His it was 0.000464 s⁻¹; with MfANGPTL3(17-170)-mmH [7] it was 0.00117 s⁻¹; with mANGPTL3(17-455)-His it was 0.000791 s⁻¹. For the same molecule, the kon (in general, the rate constant with which the complex forms) is 582000 M⁻¹ s⁻¹ with hANGPTL3(17-169)-mFc [4], 344000 M⁻¹ s⁻¹ with hANGPTL3(17-460)-His, 1.87e+06 M⁻¹ s⁻¹ in the assay with MfANGPTL3(17-170)-mmH [7] and 1.94e+06 M⁻¹ s⁻¹ with mANGPTL3(17-455)-His. For the same molecule, the t1/2 with hANGPTL3(17-169)-mFc [4] worked out at 30 min; in the assay with hANGPTL3(17-460)-His, 25 min; with MfANGPTL3(17-170)-mmH [7], 9.9 min; in the assay with mANGPTL3(17-455)-His, 14.6 min. The “IC50, LPL bioassay, 80 nM constant hANGPTL3(17-169)-mFc” value in the assay with hANGPTL3(17-169)-mFc [5] came out at 33 nM. Besides, the “IC50, LPL bioassay, 500 nM constant mANGPTL3(17-240)-His” value with mANGPTL3(17-240)-His [6] stood at 64 nM.
